Source: publication PMC4795164

Substrate: N[C@@H](CSSC[C@H](N)C(=O)O)C(=O)O
Assay: purified protein
Type: biochemical, Homo sapiens
Details: 100 µM AdoMet, 50 µM PLP, 100 mM HEPES pH 7.4, 37 °C

B1: human CBS (cystathionine beta-synthase) (Homo sapiens) (protein)
chain: MPSETPQAEVGPTGCPHRSGPHSAKGSLEKGSPEDKEAKEPLWIRPDAPSRCTWQLGRPASESPHHHTAPAKSPKILPDILKKIGDTPMVRINKIGKKFGLKCELLAKCEFFNAGGSVKDRISLRMIEDAERDGTLKPGDTIIEPTSGNTGIGLALAAAVRGYRCIIVMPEKMSSEKVDVLRALGAEIVRTPTNARFDSPESHVGVAWRLKNEIPNSHILDQYRNASNPLAHYDTTADEILQQCDGKLDMLVASVGTGGTITGIARKLKEKCPGCRIIGVDPEGSILAEPEELNQTEQTTYEVEGIGYDFIPTVLDRTVVDKWFKSNDEEAFTFARMLIAQEGLLCGGSAGSTVAVAVKAAQELQEGQRCVVILPDSVRNYMTKFLSDRWMLQKGFLKEEDLTEKKPWWWHLRVQELGLSAPLTVLPTITCGHTIEILREKGFDQAPVVDEAGVILGMVTLGNMLSSLLAGKVQPSDQVGKVIYKQFKQIRLTDTLGRLSHILEMDHFALVVHEQIQYHSTGKSSQRQMVFGVVTAIDLLNFVAAQERDQK
B1 was tested, and the Km was 1300 ± 100 µM, the Vmax was 0.102 µmol/min/mg and the kcat was 0.11 s⁻¹. For the same protein, the kcat/Km was 85 M⁻¹ s⁻¹.
